Data: PMC10130748

Columns and labels:
[1] = target: CD62P lectin domain R16E/K17E mutant
[2] = target: CD62P (P-selectin) lectin domain (residues 1–117), wild type; experiment: ELISA; wells coated with the CD62P lectin domain (WT, mutants, or lectin+EGF; 50 μg/ml where stated), blocked with BSA; soluble αvβ3 or αIIbβ3 (1 μg/ml) in HEPES-Tyrodes buffer with 1 mM MnCl2, 1 h, room temperature; bound integrin detected with anti-β3 mAb AV-10 and HRP anti-mouse IgG
Sequence of CD62P (P-selectin) lectin domain (residues 1–117), wild type (P16109 42-158): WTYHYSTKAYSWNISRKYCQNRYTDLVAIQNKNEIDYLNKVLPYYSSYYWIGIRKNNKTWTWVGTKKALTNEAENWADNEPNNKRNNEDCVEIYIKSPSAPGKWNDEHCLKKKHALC

Sequence of CD62P lectin domain R16E/K17E mutant (P16109 42-158 R57E/K58E): as the sequence (P16109 42-158) above, with R16E, K17E counted along it
Sequence of integrin αvβ3 on β3-CHO cells (P05106 whole entry, looked up): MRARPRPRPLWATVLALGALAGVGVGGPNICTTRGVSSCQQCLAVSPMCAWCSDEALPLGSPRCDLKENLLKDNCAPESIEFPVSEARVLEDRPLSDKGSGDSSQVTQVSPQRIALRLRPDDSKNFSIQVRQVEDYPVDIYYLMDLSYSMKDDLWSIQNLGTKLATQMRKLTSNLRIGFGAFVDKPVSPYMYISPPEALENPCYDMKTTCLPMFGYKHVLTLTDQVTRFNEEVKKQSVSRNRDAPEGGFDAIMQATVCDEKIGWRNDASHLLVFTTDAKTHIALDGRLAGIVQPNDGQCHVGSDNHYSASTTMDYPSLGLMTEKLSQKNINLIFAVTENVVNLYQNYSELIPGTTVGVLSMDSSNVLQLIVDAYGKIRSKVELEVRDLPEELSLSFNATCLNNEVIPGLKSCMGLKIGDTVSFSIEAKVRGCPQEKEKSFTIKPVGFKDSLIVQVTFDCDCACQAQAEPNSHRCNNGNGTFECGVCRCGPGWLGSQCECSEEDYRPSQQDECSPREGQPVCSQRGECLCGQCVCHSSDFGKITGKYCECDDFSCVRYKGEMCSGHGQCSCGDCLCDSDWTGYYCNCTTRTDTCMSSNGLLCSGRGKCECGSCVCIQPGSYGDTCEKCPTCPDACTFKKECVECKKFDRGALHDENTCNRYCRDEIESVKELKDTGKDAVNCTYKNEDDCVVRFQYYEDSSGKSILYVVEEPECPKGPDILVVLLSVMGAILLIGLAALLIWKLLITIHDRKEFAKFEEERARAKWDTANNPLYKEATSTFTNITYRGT

fold binding relative to the combined lectin and EGF-like domains [2]	also measured	Substance
	static adhesion of parent CHO cells to wells coated with the R16E/K17E lectin domain (50 μg/ml), Mg2+ buffer [1]: 60 % reduced	integrin α5β1 on parent CHO cells (receptor)
	static adhesion of β3-CHO cells to wells coated with the R16E/K17E lectin domain (50 μg/ml), Mg2+ buffer [1]: 60 % reduced	integrin αvβ3 on β3-CHO cells (from UniProt P05106 27-788) (receptor)
2 fold		soluble recombinant integrin αIIbβ3 (from UniProt P08514 32-1039; P05106 27-718) (receptor)
2 fold		soluble recombinant integrin αvβ3 (from UniProt P06756 31-1048; P05106 27-718) (receptor)
